Assay results: patent publication US20250002593A1 (INMAGENE PTE, published 2025)

Legend:
[1] = target: T1, Recombinant hIL-36R protein (Acrobio, Cat #IL2-H52H6) (human, UniProt Q9HB29 20-335); test: BLI (Gator), antibody on Protein A sensor, hIL-36R analyte; column head prints koff(1/Ms)
T1 construct: Bought soluble protein; also called recombinant human IL-36R protein
T1 sequence: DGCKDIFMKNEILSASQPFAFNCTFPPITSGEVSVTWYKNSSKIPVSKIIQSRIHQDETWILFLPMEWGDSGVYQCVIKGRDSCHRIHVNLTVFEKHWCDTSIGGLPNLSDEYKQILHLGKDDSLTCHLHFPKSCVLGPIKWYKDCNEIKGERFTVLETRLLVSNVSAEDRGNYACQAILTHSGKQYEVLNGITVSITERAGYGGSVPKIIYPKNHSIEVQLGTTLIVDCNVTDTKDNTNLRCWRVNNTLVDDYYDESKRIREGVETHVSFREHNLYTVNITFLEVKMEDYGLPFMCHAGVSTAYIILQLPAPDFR

[2] = target: T1, Recombinant hIL-36R protein (Acrobio, …); test: BLI (Gator), antibody on Protein A sensor, hIL-36R analyte
[3] = target: T2, membrane hIL-36R (human, UniProt Q9HB29 20-575); test: cell-based or functional assay
T2 sequence: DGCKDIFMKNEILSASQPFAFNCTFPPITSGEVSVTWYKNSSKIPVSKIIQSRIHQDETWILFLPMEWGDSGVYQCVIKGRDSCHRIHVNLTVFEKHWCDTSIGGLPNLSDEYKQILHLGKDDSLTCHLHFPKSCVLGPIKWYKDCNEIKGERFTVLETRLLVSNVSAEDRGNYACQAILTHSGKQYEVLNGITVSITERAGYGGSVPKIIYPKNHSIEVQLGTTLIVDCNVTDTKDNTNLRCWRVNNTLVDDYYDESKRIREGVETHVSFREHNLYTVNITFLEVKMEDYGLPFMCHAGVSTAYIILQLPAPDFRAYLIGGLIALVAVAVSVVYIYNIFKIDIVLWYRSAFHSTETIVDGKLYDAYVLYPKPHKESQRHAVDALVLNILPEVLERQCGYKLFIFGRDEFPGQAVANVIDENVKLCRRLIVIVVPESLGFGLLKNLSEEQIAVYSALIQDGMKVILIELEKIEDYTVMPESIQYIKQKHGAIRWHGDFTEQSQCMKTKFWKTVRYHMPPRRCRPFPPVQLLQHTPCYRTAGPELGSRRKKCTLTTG

[4] = target: T1, Recombinant hIL-36R protein (Acrobio, …); test: BLI (Gator), antibody on Protein A sensor, hIL-36R analyte; column head prints kon(1/s)
[5] = target: T1, Recombinant hIL-36R protein (Acrobio, …); test: SPR (Biacore T200, 25 C), antibody captured by Fc, hIL-36R analyte
[6] = target: T2, membrane hIL-36R; test: cell-based or functional assay; remark: listed apart in the source
[7] = target: T2, membrane hIL-36R; test: cell-based or functional assay; remark: listed apart in the source
[8] = target: T2, membrane hIL-36R; test: flow cytometry on HEK293 cells transfected with pcDNA3.1-hIL36R, FITC anti-hIgG, MFI (median); unit taken from the x axis
[9] = target: T2, membrane hIL-36R; test: cell-based or functional assay; remark: listed apart in the source
[10] = target: T2, membrane hIL-36R; test: cell-based or functional assay; remark: listed apart in the source
[11] = target: T3, recombinant hIL-36R-his (human, UniProt Q9HB29 20-337); test: ELISA on coated recombinant hIL36R protein (1 µg/ml), detection with HRP anti-hIgG; unit taken from the x axis Ab(µg/mL)
T3 construct: Residues 1-337 (extracellular domain) are stated for the IL-36R-his used as immunogen; The range includes the signal peptide; no cleavage site is stated; also called recombinant hIL36R protein; recombinant human IL-36R-his protein; not shown: His tag
T3 sequence: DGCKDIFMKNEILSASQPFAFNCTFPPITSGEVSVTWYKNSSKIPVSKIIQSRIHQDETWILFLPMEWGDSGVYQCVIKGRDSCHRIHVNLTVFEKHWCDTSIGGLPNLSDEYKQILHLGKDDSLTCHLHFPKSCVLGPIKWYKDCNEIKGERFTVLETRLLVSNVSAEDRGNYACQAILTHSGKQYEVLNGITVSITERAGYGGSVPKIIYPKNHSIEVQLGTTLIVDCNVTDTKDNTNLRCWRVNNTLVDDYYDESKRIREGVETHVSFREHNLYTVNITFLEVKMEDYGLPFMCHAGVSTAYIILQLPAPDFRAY

[12] = target: T2, membrane hIL-36R; test: cell-based or functional assay; remark: listed apart in the source
[13] = target: T2, membrane hIL-36R; test: cell-based or functional assay; remark: listed apart in the source
[14] = target: T4, Recombinant hIL1R1 protein (human, UniProt P14778 18-332, limits assumed); test: ELISA on coated recombinant hIL1R1 protein, detection with HRP anti-hIgG
T4 sequence (looked up): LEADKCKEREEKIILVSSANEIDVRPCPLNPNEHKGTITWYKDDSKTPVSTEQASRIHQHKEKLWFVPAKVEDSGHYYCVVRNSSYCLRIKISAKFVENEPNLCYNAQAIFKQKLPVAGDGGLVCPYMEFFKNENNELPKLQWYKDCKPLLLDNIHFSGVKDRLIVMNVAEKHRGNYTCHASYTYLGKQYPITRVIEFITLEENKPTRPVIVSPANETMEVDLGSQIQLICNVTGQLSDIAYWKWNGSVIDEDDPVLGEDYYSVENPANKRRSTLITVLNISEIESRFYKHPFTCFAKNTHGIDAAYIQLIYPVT

[15] = target: T2, membrane hIL-36R; test: cell-based or functional assay; remark: listed apart in the source
[16] = target: T5, recombinant hFcRn-his/B2M heterodimer protein (Acrobio, Cat #FCM-H82W4) (human, UniProt P55899 24-297; P61769 21-119); test: BLI (Gator) at pH 6.0, hFcRn-his/B2M on anti-his sensor, antibody analyte
T5 construct: Bought heterodimer
T5 sequence (P55899 24-297 limits assumed, chain 1 of 2): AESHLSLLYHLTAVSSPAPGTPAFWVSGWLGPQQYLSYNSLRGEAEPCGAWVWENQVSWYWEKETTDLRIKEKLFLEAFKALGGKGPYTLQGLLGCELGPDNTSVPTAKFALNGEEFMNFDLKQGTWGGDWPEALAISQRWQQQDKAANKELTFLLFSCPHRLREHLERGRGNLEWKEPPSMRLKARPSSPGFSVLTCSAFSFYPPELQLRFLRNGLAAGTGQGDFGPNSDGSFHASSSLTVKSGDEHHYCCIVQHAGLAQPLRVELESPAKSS
T5 sequence (P61769 21-119 limits assumed, chain 2 of 2): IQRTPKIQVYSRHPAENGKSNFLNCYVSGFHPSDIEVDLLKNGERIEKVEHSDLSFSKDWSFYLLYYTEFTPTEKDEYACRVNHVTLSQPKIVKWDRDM

[17] = target: T5, recombinant hFcRn-his/B2M heterodimer …; test: as above; remark: listed apart in the source

B1: 9A6 (antibody, V domains shown)
VH: QVQLQQSGPGLMAPSQSLSITCTVSGFSLTSYDVSWIRQSPGKGLEWLGVIWTGGGTDYNSAFMSRLSITKDNSKSQVFLKMSSLQTDDTAIYYCVRVYYDPYYAMDYWGQGTSVTVSS
VL: DIVLTQSPAIMSASPGEKVTMTCSASSSVSSRYLHWYQQKSGASPKLWIYGTSNLASGVPARFSGSGSGTSYSLTISSVEAEDAATYYCQQYHSDPLTFGAGTKLELK
notes: Mouse variable regions; also called chimeric antibody 9A6
[1]
  koff: 8.14e-07 s⁻¹
[2]
  Kd: 0.0205 nM
[3]
  IC50, IL-36α induced IL-36R signaling (IL36R reporter assay, luciferase): 0.312 nM
[4]
  kon: 39700 M⁻¹ s⁻¹

B2: REGN14 (antibody, V domains shown)
VH: EVQLVESGGDLVQPGRSLRLSCAASGFTFDDYAMHWVRQAPGKGLEWVSVISWNSDVIAYSDSVKGRFTISRDNAKNSLYLQMNSLRTEDTALYYCTKGHKWSFFDYWGQGTLVTVSS
VL: EIVLTQSPATLSLSPGERATLSCRASQSISSYLAWYQQKPGQAPRLLIFNVANRATDIPARFSGSGSGTDFTLTISSLEPEDFAVYYCQQRSNWPLTFGGGTKVEIK
notes: also called benchmark antibody
[5]
  Kd: 3.74 nM
  koff: 0.000283 s⁻¹
  kon: 75600 M⁻¹ s⁻¹
[6]
  IC50, inhibition of IL-36α induced IL-8 release in primary human dermal fibroblast (HDF) cells (IL-8 ELISA, OD450): 0.0877 µg/mL
[7]
  IC50, inhibition of IL-36α induced IL-6 release in primary human epithelial keratinocytes (HEK cells) [panel IL-6]: 1.73 µg/mL
  IC50, inhibition of IL-36α induced IL-8 release in primary human epithelial keratinocytes (HEK cells) [panel IL-8]: 1.47 µg/mL
  IC50, inhibition of IL-36α induced TNF-α release in primary human epithelial keratinocytes (HEK cells) [panel TNF-α]: 0.353 µg/mL
[8]
  EC50: 0.0582 µg/mL
[9]
  IC50, inhibition of IL-36γ induced IL-6 release in primary human epithelial keratinocytes (HEK cells) [panel IL-6]: 0.148 µg/mL
  IC50, inhibition of IL-36γ induced IL-8 release in primary human epithelial keratinocytes (HEK cells) [panel IL-8]: 0.114 µg/mL
  IC50, inhibition of IL-36γ induced TNF-α release in primary human epithelial keratinocytes (HEK cells) [panel TNF-α]: 0.0347 µg/mL
[10]
  IC50, inhibition of IL-36β induced IL-6 release in primary human epithelial keratinocytes (HEK cells) [panel IL-6]: 0.0225 µg/mL
  IC50, inhibition of IL-36β induced IL-8 release in primary human epithelial keratinocytes (HEK cells) [panel IL-8]: 0.253 µg/mL
  IC50, inhibition of IL-36β induced TNF-α release in primary human epithelial keratinocytes (HEK cells) [panel TNF-α]: 0.0298 µg/mL
[11]
  EC50: 0.0106 µg/mL
[12]
  IC50, inhibition of IL-36α induced IL-8 release in A431 cells (IL-8 ELISA, OD450) [panel IL-36α]: 2.29 µg/mL
  IC50, inhibition of IL-36β induced IL-8 release in A431 cells (IL-8 ELISA, OD450) [panel IL-36β]: 1.02 µg/mL
  IC50, inhibition of IL-36γ induced IL-8 release in A431 cells (IL-8 ELISA, OD450) [panel IL-36γ]: 0.0627 µg/mL
[13]
  IC50, IL-36R reporter assay: inhibition of ligand induced luminescence in Jurkat-IL36R-IL1Racp-NFkB-luc cells (printed REGN-14): 0.169 µg/mL
[14]
  binding result: no binding (tested: 1 µg/mL)
[15]
  IC50, IL-36R reporter assay: inhibition of IL-36α induced luminescence in Jurkat-IL36R-IL1Racp-NFkB-luc cells (printed REGN-14): 0.0839 nM

B3: 5F7 (antibody, V domains shown)
VH: EVKLVESGGGLVQPGGSLSLSCAASGFAFTDYYMNWVRQPPGKALEWLALIRNKAAGYTIYYSASVKGRFTISRDNSQSILYLQMTALRPEDSATYYCVRDMTIYDGYYVDYALDYWGQGTSVTVSS
VL: DIQMNQSPSSLSASLGDTITITCRASQNINIWLSWYQQKPGNIPKLFIYKASNLHTGVPSRFSGSGSGTDFTLTISSLQPEDIATYYCQQSQSYPLTFGAGTKLELK
notes: Mouse variable regions; also called chimeric antibody 5F7; 5F7 original molecular
[1]
  koff: 0.000861 s⁻¹
[2]
  Kd: 14.6 nM
[3]
  IC50, IL-36α induced IL-36R signaling (IL36R reporter assay, luciferase): 0.448 nM
[4]
  kon: 59100 M⁻¹ s⁻¹
[13]
  IC50, IL-36R reporter assay: inhibition of ligand induced luminescence in Jurkat-IL36R-IL1Racp-NFkB-luc cells (column printed '5F7-mus', taken as the '5F7 original molecular' of paragraph 330): 0.226 µg/mL

B4: 5F7-2a8-QA (antibody, human IgG4 S228P, kappa)
heavy: EVQLVESGGGLVKPGGSLRLSCAASGFAFGDYYMNWVRQAPGKGLEWVALIRNKAAGYTIYYSAPVKGRFTISRDDSKSTLYLQMNSLKTEDTAVYYCVRDMTIYDGYYVDYALDYWGQGTLVTVSSASTKGPSVFPLAPCSRSTSESTAALGCLVKDYFPEPVTVSWNSGALTSGVHTFPAVLQSSGLYSLSSVVTVPSSSLGTKTYTCNVDHKPSNTKVDKRVESKYGPPCPPCPAPEFLGGPSVFLFPPKPKDTLMISRTPEVTCVVVDVSQEDPEVQFNWYVDGVEVHNAKTKPREEQFNSTYRVVSVLQVLHQDWLNGKEYKCKVSNKGLPSSIEKTISKAKGQPREPQVYTLPPSQEEMTKNQVSLTCLVKGFYPSDIAVEWESNGQPENNYKTTPPVLDSDGSFFLYSRLTVDKSRWQEGNVFSCSVMHEALHAHYTQKSLSLSLGK
light: DIVMTQSPSSVSASVGDRVTITCRASRNINIWLSWYQQKPGKAPKLFIYKASNLHTGVPSRFSGSGSGTDFTLTISSLQPEDFATYYCLQSQSYPLTFGQGTKLEIKRTVAAPSVFIFPPSDEQLKSGTASVVCLLNNFYPREAKVQWKVDNALQSGNSQESVTEQDSKDSTYSLSSTLTLSKADYEKHKVYACEVTHQGLSSPVTKSFNRGEC
notes: 5F7-2a8 with T307Q/N434A in the IgG4 (S228P) Fc; also called 5F7-QA
[16]
  Kd: 13.7 nM
  koff: 0.00398 s⁻¹
  kon: 290000 M⁻¹ s⁻¹
[17]
  fold increase of binding affinity against 5F7-2a8-WT: ~10 fold
